# Experimental data reported in IntAct's records for PubMed 29892012.
# B1: Glutaredoxin-3 (Homo sapiens), O76003 (parent)
# chain: MAAGAAEAAVAAVEEVGSAGQFEELLRLKAKSLLVVHFWAPWAPQCAQMNEVMAELAKELPQVSFVKLEAEGVPEVSEKYEISSVPTFLFFKNSQKIDRLDGAHAPELTKKVQRHASSGSFLPSANEHLKEDLNLRLKKLTHAAPCMLFMKGTPQEPRCGFSKQMVEILHKHNIQFSSFDIFSDEEVRQGLKAYSSWPTYPQLYVSGELIGGLDIIKELEASEELDTICPKAPKLEERLKVLTNKASVMLFMKGNKQEAKCGFSKQILEILNSTGVEYETFDILEDEEVRQGLKAYSNWPTYPQLYVKGELVGGLDIVKELKENGELLPILRGEN
# B2: Ribosome assembly protein METTL17, mitochondrial (Homo sapiens), Q9H7H0 (parent)
# chain: MAAALKCLLTLGRWCPGLGVAPQARALAALVPGVTQVDNKSGFLQKRPHRQHPGILKLPHVRLPQALANGAQLLLLGSAGPTMENQVQTLTSYLWSRHLPVEPEELQRRARHLEKKFLENPDLSQTEEKLRGAVLHALRKTTYHWQELSYTEGLSLVYMAARLDGGFAAVSRAFHEIRARNPAFQPQTLMDFGSGTGSVTWAAHSIWGQSLREYMCVDRSAAMLVLAEKLLKGGSESGEPYIPGVFFRQFLPVSPKVQFDVVVSAFSLSELPSKADRTEVVQTLWRKTGHFLVLVENGTKAGHSLLMDARDLVLKGKEKSPLDPRPGFVFAPCPHELPCPQLTNLACSFSQAYHPIPFSWNKKPKEEKFSMVILARGSPEEAHRWPRITQPVLKRPRHVHCHLCCPDGHMQHAVLTARRHGRDLYRCARVSSWGDLLPVLTPSAFPPSTAQDPSES
# partner: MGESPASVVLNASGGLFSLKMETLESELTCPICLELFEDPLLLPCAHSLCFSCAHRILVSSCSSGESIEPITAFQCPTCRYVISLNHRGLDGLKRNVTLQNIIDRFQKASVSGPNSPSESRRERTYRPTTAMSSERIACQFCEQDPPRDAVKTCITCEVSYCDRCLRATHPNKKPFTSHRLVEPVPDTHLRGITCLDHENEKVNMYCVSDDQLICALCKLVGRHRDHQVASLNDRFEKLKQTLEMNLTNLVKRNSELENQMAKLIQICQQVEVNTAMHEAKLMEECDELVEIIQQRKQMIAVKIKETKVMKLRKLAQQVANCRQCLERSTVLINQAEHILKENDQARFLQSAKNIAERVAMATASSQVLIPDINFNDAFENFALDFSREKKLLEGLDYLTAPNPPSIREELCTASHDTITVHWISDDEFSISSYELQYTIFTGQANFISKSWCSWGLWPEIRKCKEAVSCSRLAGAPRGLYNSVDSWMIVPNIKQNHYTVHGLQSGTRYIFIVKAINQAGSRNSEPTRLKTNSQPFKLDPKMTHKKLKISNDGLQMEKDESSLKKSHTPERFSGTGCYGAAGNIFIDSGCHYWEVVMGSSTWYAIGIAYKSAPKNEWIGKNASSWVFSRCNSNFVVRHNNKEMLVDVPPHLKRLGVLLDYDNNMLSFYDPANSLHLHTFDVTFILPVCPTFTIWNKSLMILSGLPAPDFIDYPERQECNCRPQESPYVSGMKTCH
# B3: Ribosome assembly protein METTL17, mitochondrial (Homo sapiens), Q9H7H0 (parent)
# chain: B2 chain
# partner: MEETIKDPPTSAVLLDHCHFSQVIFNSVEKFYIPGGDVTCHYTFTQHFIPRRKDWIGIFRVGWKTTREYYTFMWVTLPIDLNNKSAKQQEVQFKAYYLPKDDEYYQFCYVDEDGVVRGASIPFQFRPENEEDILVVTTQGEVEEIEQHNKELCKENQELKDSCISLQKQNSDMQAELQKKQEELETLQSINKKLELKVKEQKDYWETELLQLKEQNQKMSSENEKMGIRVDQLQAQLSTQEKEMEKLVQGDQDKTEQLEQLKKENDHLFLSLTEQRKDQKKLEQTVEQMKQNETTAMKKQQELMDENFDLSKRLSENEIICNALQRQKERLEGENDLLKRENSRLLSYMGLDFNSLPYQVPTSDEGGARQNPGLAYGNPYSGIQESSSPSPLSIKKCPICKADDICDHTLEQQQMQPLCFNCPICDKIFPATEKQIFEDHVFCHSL
# B4: Coiled-coil domain-containing protein 120 (Homo sapiens), Q96HB5-4 (parent)
# chain: MRREPRYQGQVGPDIHTDSERTLSSHQPRPLDSTKMEVKGQLISSPTFNAPAALFGEAAPQVKSERLRGLLDRQRTLQEALSLKLQELRKVCLQEAELTGQLPPECPLEPGERPQLVRRRPPTARAYPPPHPNQAHHSLCPAEELALEALEREVSVQQQIAAAARRLALAPDLSTEQRRRRRQVQADALRRLHELEEQLRDVRARLGLPVLPLPQPLPLSTGSVITTQGVCLGMRLAQLSQEDVVLHSESSSLSESGASHDNEEPHGCFSLAERPSPPKAWDQLRAVSGGSPERRTPWKPPPSDLYGDLKSRRNSVASPTSPTRSLPRSASSFEGRSVPATPVLTRGAGPQLCKPEGLHSRQWSGSQDSQMGFPRADPASDRASLFVARTRRSNSSEALLVDRAAGGGAGSPPAPLAPSASGPPVCKSSEVLYERPQPTPAFSSRTAGPPDPPRAARPSSAAPASRGAPRLPPVCGDFLLDYSLDRGLPRSGGGTGWGELPPAAEVPGPLSRRDGLLTMLPGPPPVYAADSNSPLLRTKDPHTRATRTKPCGLPPEAAEGPEVHPNPLLWMPPPTRIPSAGERSGHKNLALEGLRDWYIRNSGLAAGPQRRPVLPSVGPPHPPFLHARCYEVGQALYGAPSQAPLPHSRSFTAPPVSGRYYADFLYPPELSARLSDLTLEGEQSSSSDTQTPGTLV
# partner: B2 partner
# Variants of: B1
# Conditions: with grn_human GRN
row,Variant,effect of a mutation on the interaction
1,P145A,with no effect

# Variants of: B1
# Conditions: with cpin1_human CIAPIN1, Q6FI81
# Sequence of cpin1_human CIAPIN1, Q6FI81 (Q6FI81 whole entry): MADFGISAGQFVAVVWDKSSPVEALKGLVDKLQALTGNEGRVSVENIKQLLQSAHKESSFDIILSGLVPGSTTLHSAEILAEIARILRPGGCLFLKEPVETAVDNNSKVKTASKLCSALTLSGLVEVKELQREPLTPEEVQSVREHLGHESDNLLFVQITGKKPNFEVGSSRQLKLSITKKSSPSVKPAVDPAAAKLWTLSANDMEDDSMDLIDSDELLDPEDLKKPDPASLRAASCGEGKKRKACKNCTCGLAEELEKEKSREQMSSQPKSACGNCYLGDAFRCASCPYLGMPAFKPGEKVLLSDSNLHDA
row,Variant,effect of a mutation on the interaction
1,P145A,with no effect

# Variants of: B1
# Conditions: with tmm25_human TMEM25, Q86YD3
# Sequence of tmm25_human TMEM25, Q86YD3 (Q86YD3 whole entry): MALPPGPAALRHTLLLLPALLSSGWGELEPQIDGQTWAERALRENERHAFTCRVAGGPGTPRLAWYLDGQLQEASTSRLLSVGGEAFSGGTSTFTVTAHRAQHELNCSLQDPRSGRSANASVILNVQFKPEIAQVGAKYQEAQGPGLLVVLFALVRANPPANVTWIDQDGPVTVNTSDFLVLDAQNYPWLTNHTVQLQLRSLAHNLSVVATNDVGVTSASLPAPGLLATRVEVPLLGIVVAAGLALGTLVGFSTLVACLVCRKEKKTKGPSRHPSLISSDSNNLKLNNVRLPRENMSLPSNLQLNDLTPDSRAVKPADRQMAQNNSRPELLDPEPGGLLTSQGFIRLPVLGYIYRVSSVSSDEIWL
row,Variant,effect of a mutation on the interaction
1,P145A,with no effect

# Variants of: B2
# Conditions: with trim1_human MID2, Q9UJV3
row,Variant,effect of a mutation on the interaction
1,R212H,disrupting interaction strength

# Variants of: B3
# Conditions: with caco2_human CALCOCO2, Q13137
row,Variant,effect of a mutation on the interaction
1,R212H,disrupting interaction strength

# Variants of: B4
# Conditions: with trim1_human MID2, Q9UJV3
row,Variant,effect of a mutation on the interaction
1,R346W,with no effect
